# From article doi:10.1101/286310, “Dynamics of human protein kinases linked to drug selectivity” (bioRxiv, 2018)
# B1: dephosphorylated Aurora A (122-403) (domain or fragment, human, UniProt O14965 122-403, looked up)
# chain: ESKKRQWALEDFEIGRPLGKGKFGNVYLAREKQSKFILALKVLFKAQLEKAGVEHQLRREVEIQSHLRHPNILRLYGYFHDATRVYLILEYAPLGTVYRELQKLSKFDEQRTATYITELANALSYCHSKRVIHRDIKPENLLLGSAGELKIADFGWSVHAPSSRRTTLCGTLDYLPPEMIEGRMHDEKVDLWSLGVLCYEFLVGKPPFEANTYQETYKRISRVEFTFPDFVTEGARDLISRLLKHNPSQRPMLREVLEHPWITANSSKPSNCQNKESASKQS
# notes: Aurora A kinase (Ser/Thr kinase), residues 122-403, dephosphorylated; also called AurA; deP Aurora A^122-403; source: expressed and purified as described before (Zorba et al., 2014); dephosphorylated state confirmed by mass spectrometry
# Molecular target: the molecule itself
# Assay: crystal structure; co-crystallised: 240 uM deP Aurora A 122-403 + 1.0 mM AT9283 + 250 uM Mb; sitting drop, 18 °C; 0.1 M Bis-Tris pH 5.5, 0.2 M magnesium chloride, 19% (w/v) PEG-3350
protein,measurement,value
B1,binding result,binds
